Series [1] concerns the molecule itself. Description: dynamic light scattering; pH 1.4, 100 µM protein (monomer), 25 °C.
Series [2] concerns the molecule itself. Description: crystal structure; hanging drop vapor diffusion at 25 °C; 7% PEG 2000 MME, 2% MPD, 50 mM Tris-HCl pH 6.5; asymmetric part holds three subunits, hexamer by crystallographic symmetry.

Values joined by “and” are separate entries in the source; they are usually repeats but may differ in a detail not shown here. Equal entries are not always repeated.

B1: Pseudomonas aeruginosa Hfq Y55W mutant (natural protein)
chain: MSKGHSLQDPYLNTLRKERVPVSIYLVNGIKLQGQIESFDQFVILLKNTVSQMVWKHAISTVVPSRPVRLPSGDQPAEPGNA
notes: also called Y55W (hexamer); Pae Hfq Y55W
What is called stoichiometry N is a count of units in the complex or per binding partner. Regarding B1, the “stoichiometry N” value in series [1] was 3 and 2; in series [2], 6.

For the origin of these results see publication PMC9228748, “The Denaturant- and Mutation-Induced Disassembly of Pseudomonas aeruginosa Hexameric Hfq Y55W Mutant” (Molecules, 2022).
